Measured values taken from IntAct's records for PubMed 25988182.

B1: Regulator of RpoS (Escherichia coli (strain K12)), P0AEV1 (parent)
chain: MTQPLVGKQILIVEDEQVFRSLLDSWFSSLGATTVLAADGVDALELLGGFTPDLMICDIAMPRMNGLKLLEHIRNRGDQTPVLVISATENMADIAKALRLGVEDVLLKPVKDLNRLREMVFACLYPSMFNSRVEEEERLFRDWDAMVDNPAAAAKLLQELQPPVQQVISHCRVNYRQLVAADKPGLVLDIAALSENDLAFYCLDVTRAGHNGVLAALLLRALFNGLLQEQLAHQNQRLPELGALLKQVNHLLRQANLPGQFPLLVGYYHRELKNLILVSAGLNATLNTGEHQVQISNGVPLGTLGNAYLNQLSQRCDAWQCQIWGTGGRLRLMLSAE
partner: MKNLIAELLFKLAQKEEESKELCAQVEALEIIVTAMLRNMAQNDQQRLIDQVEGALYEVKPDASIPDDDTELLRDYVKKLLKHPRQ

Variants of: B1
Settings: with irap_ecoli iraP

| effect of a mutation on the interaction | Variant |
| --- | --- |
| decreasing interaction strength | MTQPLVGKQILIVEDEQVFRSLLDSWFSSLGATTVLAADGVDALELLGGFTPDLMICAIAMPRMNGLKLLEHIRNRGDQTPVLVISATENMADIAKALRLGVEDVLLKPVKDLNRLREMVFACLYPSMFNSRVEEEERLFRDWDAMVDNPAAAAKLLQELQPPVQQVISHCRVNYRQLVAADKPGLVLDIAALSENDLAFYCLDVTRAGHNGVLAALLLRALFNGLLQEQLAHQNQRLPELGALLKQVNHLLRQANLPGQFPLLVGYYHRELKNLILVSAGLNATLNTGEHQVQISNGVPLGTLGNAYLNQLSQRCDAWQCQIWGTGGRLRLMLSAE [D58A] |
| disrupting interaction strength | MTQPLVGKQILIVEDEQVFRSLLDSWFSSLGATTVLAADGVDALELLGGFTPDLMICPIAMPRMNGLKLLEHIRNRGDQTPVLVISATENMADIAKALRLGVEDVLLKPVKDLNRLREMVFACLYPSMFNSRVEEEERLFRDWDAMVDNPAAAAKLLQELQPPVQQVISHCRVNYRQLVAADKPGLVLDIAALSENDLAFYCLDVTRAGHNGVLAALLLRALFNGLLQEQLAHQNQRLPELGALLKQVNHLLRQANLPGQFPLLVGYYHRELKNLILVSAGLNATLNTGEHQVQISNGVPLGTLGNAYLNQLSQRCDAWQCQIWGTGGRLRLMLSAE [D58P] |
